Drawing on PMC8189181, this text covers Kd for one substance.

The assay deals with Fzd1-mApple. Nature of the assay: quasi-PIE fluorescence cross-correlation spectroscopy (FCCS); live zebrafish embryos co-expressing the EGFP- and mApple-tagged proteins; dorsal cerebellum and midbrain hindbrain boundary; room temperature; FLCS-based statistical filtering of spectral cross talk; apparent Kd.

As to Wnt3C80A-EGFP (ligand), the Kd came to 313 nM.
